Data on one molecule can be found in US6846636B1, “Methods and compositions for HDL holoparticle uptake receptor” (American National Red Cross, priority 1998, dated 2005).

Test [1] concerns RA/Bt2cAMP-treated F9 cells. The test is described as follows: [125I]-HDL internalization and degradation assay. Format: cell-based, mouse. The conditions noted are these: [125I]-HDL 2 μg/ml, 6.5 h at 37° C.; unlabeled HDL 80 μg/ml, RAP 1 μM, chloroquine 50 μM, anti-cubilin IgG 150 μg/ml. Here is the method:
HDL internalization and degradation assays were performed in a manner similar to LDL and apolipoprotein J internalization and degradation assays described previously (Stefansson et al., 1995; Kounnas et al., 1995). ApoE-free HDL (HDL3) was labeled with [^125I]-iodine using the iodine monochloride method (Goldstein et al., 1983). RA/Bt2cAMP-treated and -untreated F9 cells were seeded onto gelatin-coated 3.83 cm^2 wells (Corning, Corning, N.Y.) at 1.5-1.75×10^5 cells/well and allowed to grow for 18 h at 37° C., 5% CO2. Prior to the addition of [^125I]-HDL, the cells were washed with serum-free DMEM and incubated in the assay medium (DMEM, 20 mM HEPES, ITS, penicillin/streptomycin, and 1.5% BSA) containing unlabeled HDL3 (80 μg/ml), RAP (1 μM), chloroquine (50 μM) (Sigma) or BSA (10 μM) and incubated for 0.5 hours at 37° C., 5% CO2. The medium was then removed and [^125I]-HDL3 (2 μg/ml) in serum-free medium or in serum-free medium containing unlabeled HDL3 (80 μg/ml), RAP (1 μM), chloroquine (50 μM) or BSA (10 μM) was added and incubated with the cells for 6.5 h at 37° C., 5% CO2. The conditioned culture medium was treated with trichloroacetic acid (final concentration 10%) and centrifuged at 10,000×g for 10 min. The amount of radioactivity present in the supernatant was taken to represent the amount of degraded HDL (Goldstein and Brown, 1974). […] The released cells were pelleted by centrifugation at 1,000×g for 15 min and the amount of radioactivity in the cell pellet measured.
HDL internalization and degradation assays were performed as described previously for LDL and apolipoprotein J (Hammad et al., 1997; Kounnas et al., 1995; Stefansson et al., 1995a). […] The amount of radioactivity in the supernatant was taken to represent the amount of degraded HDL (Goldstein and Brown, 1974). […] The released cells were pelleted by centrifugation at 1,000×g for 15 min and the amount of radioactivity in the cell pellet was measured and taken to represent the amount of internalized HDL.

Test [2] relates to visceral yolk sac endoderm. The test is described as follows: DiI-HDL uptake by mouse embryo yolk sac (ex utero culture, confocal microscopy). Conditions: ± S.D.; DiI-HDL 1 μg/ml 1 h; RAP, ovalbumin 1 μM; IgGs 400 μg/ml; p<0.01 vs control. Here is the method:
Embryos (8-8.5 days post-conception) were removed from timed pregnant ICR mice (Harlan Sprague Dawley, Inc.) so as to leave visceral yolk sac endoderm intact and placed in DMEM. The embryos were then incubated in DMEM containing RAP (1 μM), ovalbumin (1 μM), rabbit anti-cubilin IgG (400 μg/ml) or normal rabbit IgG (400 μg/ml) for 0.5 h at 37° C., 5% CO2. DiI-HDL was added to a final concentration of (1 μg/ml) and incubated for 1 h at 37° C., 5% CO2. The medium was removed and the embryos gently washed with dPBS and fixed with 3% paraformaldehyde for 15 min. The fixed embryos were placed in dPBS, 0.1% azide in a well slide and examined by laser scanning confocal microscopy. The intensity of yolk sac fluorescence in mouse embryos incubated with DiI-HDL in the presence of either RAP, ovalbumin, anti-cubilin IgG or control IgG was evaluated by seven people in a double blinded fashion. The assessments of relative intensity were analyzed by a nonparametric statistical test using RANK and ANOVA procedures (SAS Institute, Inc., Cary, N.C.).

B1: RAP: 39 kDa chaperone protein that inhibits ligand binding to LDLR family members; recombinant human RAP (protein, UniProt P30533 35-357, looked up)
Alpha-2-macroglobulin …: YSREKNQPKPSPKRESGEEFRMEKLNQLWEKAQRLHLPPVRLAELHADLKIQERDELAWKKLKLDGLDEDGEKEARLIRNLNVILAKYGLDGKKDARQVTSNSLSGTQEDGLDDPRLEKLWHKAKTSGKFSGEELDKLWREFLHHKEKVHEYNVLLETLSRTEEIHENVISPSDLSDIKGSVLHSRHTELKEKLRSINQGLDRLRRVSHQGYSTEAEFEEPRVIDLWDLAQSANLTDKELEAFREELKHFEAKIEKHNHYQKQLEIAHEKLRHAESVGDGERVSRSREKHALLEGRTKELGYTVKKHLQDLSGRISRARHNEL
B1: in test [1], the “degradation of [125I]-HDL” value is “inhibited the endocytosis and degradation”; the “internalization (endocytosis) of [125I]-HDL” value was “inhibited the endocytosis and degradation”. Further, the “fluorescence intensity RANK score of DiI-HDL incorporation into extraembryonic endoderm” value in test [2] worked out at 9.77±0.22.
